Measurements taken from the supplement of paper PMC12042874.
± gives the uncertainty stated by the source.

assay: amyloid nucleation score (Sup35N fusion, yeast selection) (log enrichment); library NNK3; higher = more nucleation; inactive = no reads after selection
Procedure, shortened: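 Using DiMSum, nucleation scores were taken as the log enrichment of output over input reads, centred on the mode score of non-aggregating sequences. The input and output reads came from Illumina sequencing of plasmid inserts, with sequences under 100 input reads excluded. The yeast were psi-negative, expressed Sup35N fused to peptides of 20 random codons, were induced with 100 μM copper sulfate for 24 hours, and were grown 7 days at 30°C on medium lacking adenine and uracil.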

Row | Substance | amyloid nucleation score
1 | CHASVW | inactive
2 | CLGGHLTHLHL | inactive
3 | YFYSSDALPSIS | inactive
4 | CFQQVHN | inactive
5 | GFSLFYYL | inactive
6 | RKDVSCSPLLNCETVSVQ | inactive
7 | YLFGRFPNGLVGRRGSGLLM | inactive
8 | HYWYE | inactive
9 | KKRSMD | inactive
10 | VMLCFTFSMLVLVGGQVCLY | inactive
11 | KICWYELNLDNSLVLLGRRY | 1.78 ± 0.084
12 | VYRIARMAQHLIRWKNR | 0.187 ± 0.7
13 | DEAMEDFEWRRMGLV | inactive
14 | NLAFTNVKVWVWSFSLLLYC | inactive
15 | AWNFNLKLKELRKTMTS | inactive
16 | NLRKKWFWAYNPSYETSPLV | inactive
17 | CNGFTVGWPWGRRLRDPPGH | -0.598 ± 2.4
18 | KTTTY | -0.2 ± 0.54
19 | SIIGGWCGNE | inactive
20 | KLTPRFICVMCTCLIRL | inactive
21 | SLISSALDIISDRYGLHVNN | inactive
22 | GPDWYWNLNV | inactive
23 | SSLGNSLVMYVVCAWVN | 0.273 ± 0.37

Row | Substance | amyloid nucleation score
24 | QCFKDRMWHGICREPVAKIG | inactive
25 | WIWVVVHFYDLECQLDS | inactive
26 | ARSNRCSM | inactive
27 | DLRLFFRRRGISQLDC | 0.356 ± 0.26
28 | VNSLATRNFIGTLCVVSHKR | inactive
29 | LMGGQMRDIVFHMQGF | 1.45 ± 0.1
30 | LQHVIFSYLLVGASSFRFHP | inactive
31 | CIIRVYCFWFTDGDFYVLYR | inactive
32 | LSVLWYSWWGFNTG | inactive
33 | CRCRFLAVWWNSVGYNDGVG | inactive
34 | YSGWVCWSLQLTYMTFNFRL | inactive
35 | YYLDRVYIFSTQDL | 1.67 ± 0.065
36 | TVHAYLFCGTAVMTVRSSVV | inactive
37 | KLAVFYFVVLVFRGERISSC | inactive
38 | SNITSCLNSQRKMDLAFYRV | inactive
39 | LWDRHNCWGDEASFPSRPTY | inactive
40 | TLFFSNDRVRFGRSTSRCHM | inactive
41 | EQIPMKSVEGEYWLTVIVGN | inactive
42 | LFVYVIQYVISVI | 0.74 ± 0.14
43 | HYVPVASDVRGMIYFRSFEW | inactive
44 | KLYELDAVMMAWVIMY | inactive
45 | RNTVSSTQEIWRLPISLEKT | inactive
46 | YARYYGCGIWGWWFSNRSLL | inactive

Row | Substance | amyloid nucleation score
47 | LWIPLWNVRKVYIIGQCLT | inactive
48 | VDNHAFKAFKHLGSSLMADR | inactive
49 | VAPGDPNMIGHGLHVFTTTL | -0.498 ± 0.83
50 | VASCMTGWLILDETMSSFKL | -0.746 ± 0.98
51 | LKVTSFKALHCLTAYHSSPL | inactive
52 | FRCSG | inactive
53 | VSGWFDWDFLDDNGQYWLHV | inactive
54 | RDNVFCVDVDICILVVR | inactive
55 | ETDYVGRFALMKYDGLVYI | inactive
56 | SGVYLTNNVWGFLYRATISG | inactive
57 | IGVDVTYSKGLSGTIDKSLG | inactive
58 | YRSSDQDVTVIMCLLANYYN | 2.37 ± 0.057
59 | LLLSTRID | inactive
60 | YRNCLLRDMSWVVDFIDIKT | inactive
61 | GCWNVMRRCVLLILPESYLV | inactive
62 | HDCCDLGFSVDV | inactive
63 | EFYGVVSRVPYERTPGTKVE | inactive
64 | KPLSRSLRHSLCNRTAMIRF | 0.672 ± 0.32
65 | ALAMTFVNIDKSFFFNVYSM | 2.89 ± 0.069
66 | CFAIWVCKSVR | inactive
67 | CFASTRSGVILNYTMVVVDF | 1.78 ± 0.098
68 | FWLLIIVF | inactive
69 | DAPSFLSMSRFAFYNFNLYW | 1.29 ± 0.12

Row | Substance | amyloid nucleation score
70 | LCATFMNYRVKIWSQLRY | -0.426 ± 0.66
71 | MSVYRYSKAVYARIEFTSRS | inactive
72 | SRRDYRLGSTVKLVVLGKSF | inactive
73 | YVRSHHNMNRTMVFKTCPWQ | inactive
74 | ESRFCTYVSSRDYISTIQFN | inactive
75 | NLPLYPSGFFKSMIRNRVLT | 1.66 ± 0.083
76 | HAVLFSVDVSYYLVPALLFR | inactive
77 | NSSAYFFDAAGSTRLDQASY | inactive
78 | LCVLPMSSTRGPHNICSTLL | inactive
79 | SYRLCCSMIGFSTGGRSHVE | inactive
80 | DVFVHHDM | inactive
81 | VSNNVQVNQVMYFNTVICIV | 2.69 ± 0.063
82 | MFYMIFIVYQSWLKNASYLC | inactive
83 | EYQTNNDYLQLTCLKSSWSS | inactive
84 | YIALLLLSRWDQTCKGARTG | 0.622 ± 0.18
85 | YCCNGYPACG | inactive
86 | IMDGFWCIDTGCLTAHGMWM | inactive
87 | SCVVFGSQTLRVVFFDRVSS | 0.184 ± 0.32
88 | NLRHYTVDMLCSNYEYVIVY | inactive
89 | NACVNEWRPKCQVSWGGPSF | -0.385 ± 0.93
90 | WCKVRYSTNMVTSTSATLVA | inactive
91 | VPSPTFIHVARRSRYHYASR | inactive
92 | QFESSSFRYVAVCSVCAFSI | 1.73 ± 0.099

Row | Substance | amyloid nucleation score
93 | RELNQFSPRAENWWYSSHSV | inactive
94 | LSLNLRYHQPVNWNSRDTCL | 1.31 ± 0.12
95 | HSIGPVIKRCCVIFSLR | inactive
96 | RPRHDHWNDVNDATSYRYVM | inactive
97 | CYGKTGSCFSVLHGWGGFVM | inactive
98 | RKVIPCH | inactive
99 | VVVIHE | inactive
100 | MLPFTLMQPNVLFWMIDWED | inactive
101 | ETTYGFDKIYGVEYVCGLCR | inactive
102 | RANDEEFHR | inactive
103 | KCSRDRWQIVKMFMRMTVAI | inactive
104 | NFVVKCICWAYFPHVDGFYF | inactive
105 | MALLPGVAGTSYK | -0.435 ± 1.3
106 | VGRHDNGVSDFAMTSSWVFF | inactive
107 | RFQFEGREFCLGMLDFNSWI | inactive
108 | MYVYSYQVYNLTCARLAKK | inactive
109 | NNTCMNGAVLWSEMAKTGGC | inactive
110 | DLLWLLFGLTSDLQFFIRYK | inactive
111 | NVDVTELCTAVTYNDLHGFR | inactive
112 | YISIYFSFNRLIVNATSTTK | inactive
113 | SGFILSCMLNPGTFTNDLMG | inactive
114 | ARCVVAFIILGNYR | 0.663 ± 0.21
115 | KLQNCVKTDLHA | inactive

Row | Substance | amyloid nucleation score
116 | MRCILTLFSTDIICVLSCKC | inactive
117 | IMGTYKSDLVAARFRFYV | inactive
118 | DTESWNCFFYRDYYSGQILK | inactive
119 | NIVERQDLLLGLANNWLHLT | inactive
120 | SKTVDNGKMRKDWLGRQPWK | -0.362 ± 0.51
121 | IASEFVRGKHSHYM | inactive
122 | RIVGEYSLKGCEVNVSWVKS | inactive
123 | WGGVGKKMKRQRTAGTSRSG | inactive
124 | SRSMDGSVCAFRMDMSSMD | inactive
125 | SNDNGTHVSNYRALSSDREK | inactive
126 | CDWPPAFYQC | inactive
127 | SGGNLWGFVDTLFIGMRIRY | inactive
128 | RSWSLCIGFMFFVRNS | inactive
129 | PLSNGELFRNATLNDGIWGE | inactive
130 | RTCAYRMESVHVVRVSAGIM | inactive
131 | AIINSVREPWAPAMAHTNNA | 0.586 ± 0.21
132 | SVLGVSTYSLCSSVNCIFRF | 2.74 ± 0.062
133 | SKARQEL | inactive
134 | SNCGL | 0.832 ± 0.28
135 | SQFQGAMMYFCEEMCICFFC | 2.01 ± 0.097
136 | YLWGGLRMYCRKLQHYFVLS | inactive
137 | WTDVRGMVSSINGRSTSRVP | inactive
138 | WVCDRLGRVSLILRL | 1.06 ± 0.2

Row | Substance | amyloid nucleation score
139 | SRRKGQVVGCLQTMCCCKVE | inactive
140 | SYLKRGKSVAIQLTYGS | 0.405 ± 0.67
141 | TYGGMSQSNLLRWCCFAWMY | inactive
142 | YQIFYSEVSFLMAG | inactive
143 | KNMHNPDRY | inactive
144 | RLSMPPRIFMPNHNCIDHAS | inactive
145 | NRSTGVKSQGIDFLLSCFLV | inactive
146 | GWRSTYYECSGKSVFNAG | -0.217 ± 0.8
147 | AIGMMASRWNLWCITLFLLK | inactive
148 | IYVQNSTANKR | inactive
149 | SVAFSWGMWCDSLDYFGSVS | inactive
150 | RCTHYMNRQMVLHVCMYVSY | inactive
151 | MFVYR | inactive
152 | PTAHYWSVRSRSIDPPACQW | inactive
153 | SGYRIRVIHNMWAVGVKKRN | -0.487 ± 0.78
154 | TFHLRDCKSF | 0.133 ± 1
155 | DIEYEY | inactive
156 | SDIHMMRCGVWLKNLMFMRK | inactive
157 | VNISVRQALHANYVGTCFVC | 1.85 ± 0.084
